Where two headings read alike, the source gives them in different places. One block for each molecule: values may come before it.
Tests used:
[1] = molecular target: T1, human Claudin 6 (human, UniProt P56747 1-220); assay: flow cytometry, OVCAR3 cells (endogenous CLDN6), Ab titrated from 100 nM
T1 sequence (looked up): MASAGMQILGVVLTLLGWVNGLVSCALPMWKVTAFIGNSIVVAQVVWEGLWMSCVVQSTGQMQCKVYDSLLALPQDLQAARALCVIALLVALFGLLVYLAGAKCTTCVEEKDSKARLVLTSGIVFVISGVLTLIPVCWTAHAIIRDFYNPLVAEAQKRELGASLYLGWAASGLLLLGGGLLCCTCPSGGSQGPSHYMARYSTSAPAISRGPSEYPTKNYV
Description: In this example, FACS binding of chimeric Abs to Ovcar3 and Ov90 cells with claudin 6 endogenous expression were assessed using flow cytometry.
(§1) Claudin 6 endogenous expression cell line were incubated with chimeric Abs (from 100 nM, 6-fold dilution, 8 points) for 60 minutes at 4° C. Cells were pelleted and washed twice with 2% FBS/PBS buffer, and stained with fluorescent conjugated secondary antibody at 4° C. for 30 minutes. After that the cells were washed twice and resuspended in 80 μL of 2% FBS/PBS buffer. Fluorescent signal of binding was detected using Agilent. The EC50 was calculated using the GraphPad software.

[2] = molecular target: T2, human Claudin 9 (human, UniProt O95484 1-217); assay: flow cytometry, HEK293/H_CLDN9 cells, Ab titrated from 100 nM
T2 construct: whole, on cells; also called CLDN9; CLND9
T2 sequence (looked up): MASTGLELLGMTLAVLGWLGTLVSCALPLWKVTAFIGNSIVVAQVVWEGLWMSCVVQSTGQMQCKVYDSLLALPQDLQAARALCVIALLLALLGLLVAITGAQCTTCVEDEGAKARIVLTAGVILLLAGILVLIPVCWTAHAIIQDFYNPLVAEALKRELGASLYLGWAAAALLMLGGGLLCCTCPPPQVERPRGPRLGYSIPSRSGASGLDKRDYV

[3] = molecular target: T3, human Claudin 3 (human, UniProt O15551 1-220); assay: flow cytometry, CHOK1/H_CLDN3 cells, Ab titrated from 100 nM
T3 construct: whole, on cells; also called CLDN3
T3 sequence (looked up): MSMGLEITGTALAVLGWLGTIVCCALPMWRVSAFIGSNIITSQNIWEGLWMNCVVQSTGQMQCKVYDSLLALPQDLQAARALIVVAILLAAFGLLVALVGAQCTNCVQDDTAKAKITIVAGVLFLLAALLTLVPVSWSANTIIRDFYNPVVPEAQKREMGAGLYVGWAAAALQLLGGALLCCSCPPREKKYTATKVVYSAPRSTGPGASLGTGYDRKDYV
Description: In this example, cell-based binding of hu Abs on human CLDN3 expressing cells were assessed using flow cytometry.
(§2) Briefly, the CHOK1/H_CLDN3 cells were incubated with hu-Abs (from 100 nM, 6 folds dilution, 8 points). After incubation at 4° C. for 60 minutes. Cells were pelleted and washed twice with 2% FBS/PBS buffer, and stained with fluorescent conjugated secondary antibody at 4° C. for 30 minutes. After that the cells were washed twice and resuspended in 80 μL of 2% FBS/PBS buffer. Fluorescent signal of binding was detected using Agilent. The EC50 was calculated using the GraphPad software.

[4] = molecular target: T1, human Claudin 6; assay: cell-based or functional assay
[5] = molecular target: T1, human Claudin 6; assay: cell-based or functional assay; remark: listed apart in the source
[6] = molecular target: T1, human Claudin 6; assay: cell-based or functional assay; remark: listed apart in the source
[7] = molecular target: T1, human Claudin 6; assay: cell-based or functional assay; remark: listed apart in the source
[8] = molecular target: T1, human Claudin 6; assay: cell-based or functional assay; remark: listed apart in the source
[9] = molecular target: T2, human Claudin 9; assay: flow cytometry, HEK293/H_CLDN9 cells, Ab titrated from 100 nM; remark: listed apart in the source
Description: (§3) In this example, cell based binding of chimeric Abs on human CLDN6 & CLND9 over-expressing cell line were assessed using flow cytometry.
as §1, with “Briefly, the cells” for “Claudin 6 endogenous expression cell line”, “software (LaJolla, CA).” for “software.”

[10] = molecular target: T1, human Claudin 6; assay: flow cytometry, HEK293/H_CLDN6 cells, Ab titrated from 100 nM
Description: as §3
as §1, with “Briefly, the cells” for “Claudin 6 endogenous expression cell line”, “software (LaJolla, CA).” for “software.”

[11] = molecular target: T3, human Claudin 3; assay: flow cytometry, CHOK1/CLDN3 cells
Description: In this example, cell based binding of chimeric antibody 97-C10E1-2 toward human CLDN3 overexpression cell line were assessed using flow cytometry.
as §2, with “Briefly,” for “Briefly, the CHOK1/H_CLDN3”, “chimeric antibody” for “hu-Abs”, “Software.” for “software.”

- Top MFI [1]: 126
- Top MFI ([1]; record 2): 101
- Top MFI [2]: 140
- Top MFI [3]: 128
Molecule: hIgG1 Isotype (antibody)

B1: z5-MMAE (antibody, V domains shown)
VH: QVQLVQSGAEVKKPGASVKVSCKASGYAFTGYTMNWVRQAPGQGLEWIGLSNPYNAGTIYNQKFKGRVTMTVDKSTSTVYMELSSLRSEDTAVYYCARNYYYGSSYAYYYAMDYWGQGTTVTVSS
VL: DIVVTQSPSSLSTSVGDRVTITCRSSTGAVTTSNYANWVQEKPGKAFKGLIGGTNNRAPGVPARFSGSLSGDDAALTISSAQPEDFATYFCALWYSNHWVFGGGTKVEIK
modifications: MMAE conjugated to the antibody; residues and drug load not stated
- cytotoxicity IC50 (nM), CLDN6 High Exp HEK293 cells, 5 days [4]: 0.1 nM
- cytotoxicity IC50 (nM), OV90 cells, 5 days [5]: 0.76 nM
- cytotoxicity IC50 (nM), OVCAR3 cells, 5 days [5]: 0.13 nM
- cytotoxicity IC50 (nM), PA-1 cells, 5 days [5]: 0.11 nM
- Min cell viability, OV90 (CLDN6 low) [6]: 8%
- Min cell viability, OVCAR-3 (CLDN6 mid) [6]: 3.71%
- Min cell viability, PA-1 (CLDN6 high) [6]: 4.88%

B2: z5-Eribulin (antibody, V domains shown)
VH: B1 VH
VL: B1 VL
modifications: eribulin conjugated to the antibody; residues and drug load not stated
- cytotoxicity IC50 (nM), CLDN6 High Exp HEK293 cells, 5 days [4]: 0.1 nM
- cytotoxicity IC50 (nM), OV90 cells, 5 days [5]: 4.66 nM
- cytotoxicity IC50 (nM), OVCAR3 cells, 5 days [5]: 0.11 nM
- cytotoxicity IC50 (nM), PA-1 cells, 5 days [5]: 0.46 nM

- Inhibition Rate (%) (HEK293/H_CLDN6) [7]: 83.9%
- internalization Top RLU (HEK293/H_CLDN6) [8]: 446000 RLU
- Top MFI [1]: 165
- Top MFI [9]: 28800
- Top MFI [10]: 161000
B3: 67-C12E11 (antibody, V domains shown)
VH: EVQLQQSGPELVKPGASVKISCKTSGYTFTEYTMHWVKQSHGKSLEWIGGINPNNGGTSYNQKFKGKATLTVDKSSSTAYMELRSLTSEDSAVYYCARGMVVAFYFDSWGQGTTLTVSS
VL: DIQMTQSPASQSASLGESVTITCLASQTIGSWLAWYQQKPGKSPQLLIYAATSLADGVPSRFSGSGSGTKFSFKISSLQAEDFVSYYCQQLYSTPYTFGGGTKLEIK
notes: Tested as chimeric antibody

- Inhibition Rate (%) (HEK293/H_CLDN6) [7]: 83.4%
- internalization Top RLU (HEK293/H_CLDN6) [8]: 829000 RLU
- Top MFI [1]: 2590
- Top MFI [10]: 321000
B4: 97-C10E1-2 (antibody, V domains shown)
VH: EVQLQQSGPELVKPGASMKISCKASGYAFTGYTMNWVKQSHGKNLEWIGLSNPYNGGTIYNQKFKGKATLTVDKSSSTAYMELLSLTSEDSAVYYCARNYYYGSSYAYYYAMDYWGQGTSVTVSS
VL: QAVVTQESALTTSPGETVTLTCRSSTGAVTTSNYANWVQEKPDHLFTGLIGGTNNRAPGVPARFSGSLIGDKAALTITGAQTEDEAIYFCALWYSNHWVFGGGTKLTVL
notes: Tested as chimeric antibody; also called chimeric antibody 97-C10E1-2
- binding result [11]: no binding (tested: 100 nM (highest concentration tested))

- Inhibition Rate (%) (HEK293/H_CLDN6) [7]: 78.6%
- internalization Top RLU (HEK293/H_CLDN6) [8]: 710000 RLU
- Top MFI [1]: 227
- Top MFI [9]: 23500
- Top MFI [10]: 258000
B5: 83-F6A6 (antibody, V domains shown)
VH: QVQLQQSAPELARPGASVRMSCKASGYTFTTYTMHWVKQRPGQGLEWIGFIIPSSGYTEYNQNLKDKTTLTADKASSTAYMQLTSLTSEDSAVYYCARQFSLITTGFGYALDYWGQGTSVTVSS
VL: DIVMTQSRKFMSTSVGDRVSITCKASQDVSTAVAWYQQKPGQSPKLLLYWASTRHTGVPDRFTGSGSGTDYTLTISSVQAEDLALYYCQQHYSTPLTFGAGTKLELK
notes: Tested as chimeric antibody

— patent US20240317851A1 (LANOVA MEDICINES, published 2024)
